Measurements as given in patent US20260139049A1 (PEDIATRIC IMMUNITY AND HEALTHCARE GUANGZHOU BIOTECHNOLOGY, published 2026).
Positions count from the first letter of the chain named. Each block holds one binder with its values, some of them ahead of it.

Columns and labels:
human CLDN6 [1] = biological target: T1, human CLDN6 (human, UniProt P56747 1-220); experiment: FACS on HepG2 tumour cells; target on the cells taken as CLDN6
T1 construct: whole, on cells; four-transmembrane protein; also called claudin-6; HEK293T-CLDN6
T1 sequence (looked up): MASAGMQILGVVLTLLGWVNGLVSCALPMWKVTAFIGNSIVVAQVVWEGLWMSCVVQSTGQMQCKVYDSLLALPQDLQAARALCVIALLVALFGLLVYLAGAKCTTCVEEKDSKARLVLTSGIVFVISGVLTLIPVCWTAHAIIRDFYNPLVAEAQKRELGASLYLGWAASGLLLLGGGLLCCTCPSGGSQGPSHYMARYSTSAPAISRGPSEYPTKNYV
Experimental: 50 μL of an antibody to be tested was added to a 96-well plate, then 1×10⁵ cells were added to each well, and incubation was conducted at 4° C. for 1 h. Cells were washed three times with PBS. […] Finally, cells were washed three times with PBS, and signals were read using FACS. A binding capacity of the antibody to each tumor cell was analyzed based on detection data.

human CLDN6 [2] = biological target: T1, human CLDN6; experiment: FACS on CHO-K1-CLDN6 cells, against PiH1004 (FIG. 40)

EC50 (human CLDN6 [1]): 1.4 µg/mL
B1: PiH2010 (antibody, human IgG1, kappa, V domains shown)
VH: QVQLVQSGAEVKKPGASVKVSCKASGYTFTDYNMHWVRQATGQGLEWIGYINPNNGATNYNQKFKGRATMTRNKSISTAYMELRSLRSEDTAVYNCARWDGYVYYYGMDYWGQGTLVTVSS
VL: DIQMTQSPSSLSASVGDRVTITCKASDHINNWLAWYQQKPGKVPRLLISGATSLETGVPSRFSGSGSGKDYTLTISSLQPEDVATYYCQQYWNTPYTFGGGTKLEIKR
notes: humanized from 54B5A7; IgG1; also called 54-VH6 + VL5

EC50 (human CLDN6 [1]): 4.7 µg/mL
B2: PiH2011 (antibody, human IgG1, kappa, V domains shown)
VH: B1 VH with M70L, R72V, N95Y
VL: B1 VL
notes: humanized from 54B5A7; IgG1; also called 54-VH7 + VL5

binding result (human CLDN6 [2]): binds
B3: PiH1004-VH-VL-Mutation2 (antibody, human IgG1, kappa, V domains shown)
VH: B1 VH with T41P, G44S, I51V, N59S, R72V, N73D, I76T, A79V, R84S, M108L
VL: B1 VL with I29V, R45K, K69T, N93S
notes: improved antibody from PiH1004

binding result (human CLDN6 [2]): binds
B4: PiH1004-VH-VL-Mutation6 (antibody, human IgG1, kappa, V domains shown)
VH: B1 VH with T41P, G44S, I51V, N59S, R72V, N73D, I76T, A79V, R84S, M108L
VL: B1 VL with R45K, K69T, W92G, N93S
notes: as for B3

binding result (human CLDN6 [2]): binds
B5: PiH1004-VH-VL-Mutation4 (antibody, human IgG1, kappa, V domains shown)
VH: B1 VH with T41P, G44S, I51V, N59S, R72V, N73D, I76T, A79V, R84S, M108L
VL: B1 VL with R45K, A51G, K69T, N93S
notes: as for B3

binding result (human CLDN6 [2]): binds
B6: PiH1004-VH-VL-Mutation7 (antibody, human IgG1, kappa, V domains shown)
VH: B1 VH with T41P, G44S, I51V, N59S, R72V, N73D, I76T, A79V, R84S, M108L
VL: B1 VL with R45K, K69T, N93H
notes: as for B3

binding result (human CLDN6 [2]): binds
B7: PiH1004-VH-VL-Mutation3 (antibody, human IgG1, kappa, V domains shown)
VH: B1 VH with T41P, G44S, I51V, N59S, R72V, N73D, I76T, A79V, R84S, M108L
VL: B1 VL with N31Q, R45K, K69T, N93S
notes: as for B3
